Results published in patent US20200291112A1 (Memorial Sloan Kettering, published 2020).
Changes are numbered by the printed parent chain. Names may count otherwise.

Columns and labels:
[1] = target: T1, GPA33 on the surface of human colon and gastric cancer cell lines (human, UniProt Q99795 22-319); assay: cell-based or functional assay
T1 sequence (looked up): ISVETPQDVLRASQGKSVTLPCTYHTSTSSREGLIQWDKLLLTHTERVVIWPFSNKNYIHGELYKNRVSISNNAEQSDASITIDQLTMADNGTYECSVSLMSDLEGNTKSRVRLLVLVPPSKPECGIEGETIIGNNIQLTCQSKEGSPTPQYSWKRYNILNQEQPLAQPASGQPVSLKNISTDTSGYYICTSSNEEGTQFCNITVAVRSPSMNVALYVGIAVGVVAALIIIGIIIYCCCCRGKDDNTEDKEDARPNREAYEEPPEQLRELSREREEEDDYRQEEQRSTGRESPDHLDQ

[2] = target: T2, Human GPA33 (Novoprotein), recombinant protein immobilized on CM5 chips (human, UniProt Q99795 22-235); assay: SPR, parental huA33-BsAb, the reference of the column
T2 construct: also called GPA33 recombinant protein; Human Glycoprotein A33
T2 sequence: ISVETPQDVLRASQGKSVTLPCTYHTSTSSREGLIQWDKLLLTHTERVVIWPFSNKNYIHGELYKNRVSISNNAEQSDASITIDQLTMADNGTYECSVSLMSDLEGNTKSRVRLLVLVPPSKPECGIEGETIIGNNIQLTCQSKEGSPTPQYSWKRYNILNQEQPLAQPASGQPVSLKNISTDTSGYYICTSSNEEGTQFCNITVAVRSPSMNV

[3] = target: T1, GPA33 on the surface of human colon and …; assay: FACS staining of SW1222 colon cancer cells with titrated huA33-BsAb, geometric mean MFI [contd.) D]
[4] = target: T2, Human GPA33 (Novoprotein), recombinant …; assay: SPR (Biacore T100), human GPA33 immobilized on CM5 chip, huA33-BsAb flowed over, 25 °C, 1:1 binding model [contd.) C]
Method: (§1) SPR analysis. Human GPA33 (Novoprotein, Summit, N.J.) was immobilized on CM5 chips. Five concentrations of 2-fold serially diluted huA33 IgG1 or huA33-BsAbs (starting at 20 nM) were flowed over the chip using a Biacore™ T100 system (GE Healthcare, Chicago, Ill.). Binding kinetics of huA33 were measured at 25° C. and binding kinetics of huA33-BsAbs were measured at both 25° C. and 37° C. The sensorgrams were fitted with 1:1 binding model for both to derive kinetic parameters.

[5] = target: T2, Human GPA33 (Novoprotein), recombinant …; assay: SPR (Biacore T100), human GPA33 immobilized on CM5 chip, huA33-BsAb flowed over, 37 °C, 1:1 binding model [contd.) C]
Method: as §1

[6] = target: T2, Human GPA33 (Novoprotein), recombinant …; assay: SPR, GPA33 immobilized on CM5 chip, parental huA33-BsAb; temperature not given for this table; the KD column head prints no unit
Method: as §1

[7] = target: T2, Human GPA33 (Novoprotein), recombinant …; assay: SPR (Biacore T100), GPA33 immobilized on CM5 chip, antibody flowed, 1:1 model; measured at 25 C and 37 C; bispecific huA33-BsAb; GPA33 immobilized on CM5 chip; apparent affinity (avidity)
Method: as §1

[8] = target: T2, Human GPA33 (Novoprotein), recombinant …; assay: SPR (Biacore T100), human GPA33 immobilized on CM5 chip, huA33-BsAb flowed over, 25 °C, 1:1 binding model; the KD column head prints no unit, M follows from the ka and kd units [contd.) C]
Method: as §1

[9] = target: T2, Human GPA33 (Novoprotein), recombinant …; assay: SPR (Biacore T100), human GPA33 immobilized on CM5 chip, huA33-BsAb flowed over, 37 °C, 1:1 binding model; the KD column head prints no unit, M follows from the ka and kd units [contd.) C]
Method: as §1

[10] = target: T2, Human GPA33 (Novoprotein), recombinant …; assay: SPR, KD of the parental huA33-BsAb over KD of the clone
Method: as §1

[11] = target: T2, Human GPA33 (Novoprotein), recombinant …; assay: SPR, GPA33 immobilized on CM5 chip, clone in huA33-BsAb format; temperature not given for this table; the KD column head prints no unit
[12] = target: T2, Human GPA33 (Novoprotein), recombinant …; assay: SPR (Biacore T100), GPA33 recombinant protein immobilized on CM5 chip, IgG1 flowed over, 25 °C, 1:1 binding model
Method: as §1

[13] = target: T2, Human GPA33 (Novoprotein), recombinant …; assay: SPR (Biacore T100), GPA33 recombinant protein immobilized on CM5 chip, antibody flowed over
[14] = target: T2, Human GPA33 (Novoprotein), recombinant …; assay: SPR (Biacore T100), GPA33 immobilized on CM5 chip, antibody flowed, 1:1 model; parental huA33 IgG, not the bispecific
Method: as §1

B1: huA33-BsAb (bispecific antibody, human IgG1, kappa, N297A)
heavy: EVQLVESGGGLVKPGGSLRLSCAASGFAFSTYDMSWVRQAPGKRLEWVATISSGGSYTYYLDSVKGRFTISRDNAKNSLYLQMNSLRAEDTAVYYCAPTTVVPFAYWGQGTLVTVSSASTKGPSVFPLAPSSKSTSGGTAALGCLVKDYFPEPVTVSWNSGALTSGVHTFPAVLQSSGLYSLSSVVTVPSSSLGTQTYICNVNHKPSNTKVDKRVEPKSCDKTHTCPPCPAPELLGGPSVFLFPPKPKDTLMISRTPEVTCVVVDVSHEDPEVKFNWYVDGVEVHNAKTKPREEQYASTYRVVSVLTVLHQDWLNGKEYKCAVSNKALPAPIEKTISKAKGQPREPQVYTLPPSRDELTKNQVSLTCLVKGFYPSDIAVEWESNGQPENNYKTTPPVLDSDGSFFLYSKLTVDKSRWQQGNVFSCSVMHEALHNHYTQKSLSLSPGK
light: DIQMTQSQSSLSTSVGDRVTITCKASQNVRTVVAWYQQKPGKSPKTLIYLASNRHTGVPSRFSGSGSGTEFTLTISNVQPEDFADYFCLQHWSYPLTFGSGTKLEIKRTVAAPSVFIFPPSDEQLKSGTASVVCLLNNFYPREAKVQWKVDNALQSGNSQESVTEQDSKDSTYSLSSTLTLSKADYEKHKVYACEVTHQGLSSPVTKSFNRGECTSGGGGSGGGGSGGGGSQVQLVQSGGGVVQPGRSLRLSCKASGYTFTRYTMHWVRQAPGKCLEWIGYINPSRGYTNYNQKFKDRFTISRDNSKNTAFLQMDSLRPEDTGVYFCARYYDDHYSLDYWGQGTPVTVSSGGGGSGGGGSGGGGSGGGGSGGGGSGGGGSDIQMTQSPSSLSASVGDRVTITCSASSSVSYMNWYQQTPGKAPKRWIYDTSKLASGVPSRFSGSGSGTDYTFTISSLQPEDIATYYCQQWSSNPFTFGCGTKLQITR
notes: huA33 (H2L2) IgG1 with the humanized OKT3 scFv fused to the C-terminus of the light chain via a (G4S)3 linker; also called T-cell engaging huA33-BsAb; humanized A33-bispecific antibody
**Q.** With B1 as the binder, how does the “EC50 of T-cell dependent cytotoxicity against Colo205 cells (sorted fresh CD4 memory T cells, E:T=5:1, 48 hours, LDH assay)” value [1] read?
**A.** The value was 0.025 nM.

**Q.** What about the “Fold difference/Parental” value [2] of the same binder?
**A.** The value was 1 fold.

**Q.** What about the “EC50 (read off the curve)” value [3] of the same binder?
**A.** Its value is ~0.3 µg.

**Q.** And the koff [4]?
**A.** The koff was 0.000478 s⁻¹.

**Q.** And the kon [4]?
**A.** Its kon is 2.25e+06 M⁻¹ s⁻¹.

**Q.** And the koff [5]?
**A.** Its koff is 0.00167 s⁻¹.

**Q.** What about the kon [5] of the same binder?
**A.** Its kon is 6.81e+06 M⁻¹ s⁻¹.

**Q.** What about the Kd [6] of the same binder?
**A.** Its Kd is 0.168 nM.

**Q.** What about the Kd [7] of the same binder?
**A.** The Kd was ~0.2 nM.

**Q.** What about the Kd [8] of the same binder?
**A.** The Kd was 0.212 nM.

**Q.** And the Kd [9]?
**A.** Its Kd is 0.245 nM.

B2: affinity-matured clone 31 in huA33-BsAb format (bispecific antibody, human IgG1, kappa, N297A)
heavy: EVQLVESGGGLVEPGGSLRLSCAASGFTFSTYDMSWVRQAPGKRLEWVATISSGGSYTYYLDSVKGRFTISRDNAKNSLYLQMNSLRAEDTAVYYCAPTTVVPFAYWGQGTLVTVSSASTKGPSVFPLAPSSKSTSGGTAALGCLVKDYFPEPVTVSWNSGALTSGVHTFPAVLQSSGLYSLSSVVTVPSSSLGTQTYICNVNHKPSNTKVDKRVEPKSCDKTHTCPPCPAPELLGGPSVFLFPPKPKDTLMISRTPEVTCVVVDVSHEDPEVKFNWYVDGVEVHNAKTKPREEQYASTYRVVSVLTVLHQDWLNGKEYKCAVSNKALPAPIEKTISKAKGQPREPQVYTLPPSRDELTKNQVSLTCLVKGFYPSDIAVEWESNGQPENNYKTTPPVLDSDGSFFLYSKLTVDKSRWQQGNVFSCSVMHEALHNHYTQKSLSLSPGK
light: B1 light
**Q.** With B2 as the binder, how does the “Fold difference/Parental” value [10] read?
**A.** Its value is 4.3 fold.

**Q.** And the Kd [11]?
**A.** Its Kd is 0.0387 nM.

B3: affinity-matured clone 32 in huA33-BsAb format (bispecific antibody, human IgG1, kappa, N297A)
heavy: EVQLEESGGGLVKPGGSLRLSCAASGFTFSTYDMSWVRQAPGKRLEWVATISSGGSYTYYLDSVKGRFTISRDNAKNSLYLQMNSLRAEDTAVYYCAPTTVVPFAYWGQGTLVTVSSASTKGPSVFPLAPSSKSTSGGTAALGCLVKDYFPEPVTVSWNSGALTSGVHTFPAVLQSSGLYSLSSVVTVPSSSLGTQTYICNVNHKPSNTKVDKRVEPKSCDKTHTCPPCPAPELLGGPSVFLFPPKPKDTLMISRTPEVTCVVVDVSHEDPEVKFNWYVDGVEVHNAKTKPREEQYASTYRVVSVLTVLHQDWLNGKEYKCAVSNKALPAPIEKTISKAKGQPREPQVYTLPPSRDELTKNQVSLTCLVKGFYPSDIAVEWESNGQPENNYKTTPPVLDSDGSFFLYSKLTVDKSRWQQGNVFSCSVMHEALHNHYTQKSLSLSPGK
light: B1 light with H91Y
**Q.** Which “Fold difference/Parental” value [10] does the source give for B3 here?
**A.** Its value is 29.7 fold.

**Q.** What about the Kd [11] of the same binder?
**A.** The Kd was 0.00564 nM.

B4: affinity-matured clone 48 in huA33-BsAb format (bispecific antibody, human IgG1, kappa, N297A)
heavy: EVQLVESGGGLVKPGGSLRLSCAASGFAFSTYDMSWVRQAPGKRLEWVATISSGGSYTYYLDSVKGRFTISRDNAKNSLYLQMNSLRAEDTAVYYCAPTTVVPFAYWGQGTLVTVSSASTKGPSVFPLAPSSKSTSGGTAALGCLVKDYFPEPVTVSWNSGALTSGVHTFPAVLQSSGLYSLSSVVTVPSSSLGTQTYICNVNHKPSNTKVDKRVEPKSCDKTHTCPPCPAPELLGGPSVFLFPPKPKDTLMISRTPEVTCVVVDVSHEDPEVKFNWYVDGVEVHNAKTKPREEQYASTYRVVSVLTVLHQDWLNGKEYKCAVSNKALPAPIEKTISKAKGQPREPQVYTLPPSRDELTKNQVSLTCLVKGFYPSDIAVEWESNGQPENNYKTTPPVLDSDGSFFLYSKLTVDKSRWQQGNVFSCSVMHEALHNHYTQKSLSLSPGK
light: B1 light with N53D, H91Y
**Q.** How did the “Fold difference/Parental” value [10] turn out when B4 was run?
**A.** Its value is 51 fold.

**Q.** And the Kd [11]?
**A.** The Kd was 0.00329 nM.

B5: affinity-matured clone 49 in huA33-BsAb format (bispecific antibody, human IgG1, kappa, N297A)
heavy: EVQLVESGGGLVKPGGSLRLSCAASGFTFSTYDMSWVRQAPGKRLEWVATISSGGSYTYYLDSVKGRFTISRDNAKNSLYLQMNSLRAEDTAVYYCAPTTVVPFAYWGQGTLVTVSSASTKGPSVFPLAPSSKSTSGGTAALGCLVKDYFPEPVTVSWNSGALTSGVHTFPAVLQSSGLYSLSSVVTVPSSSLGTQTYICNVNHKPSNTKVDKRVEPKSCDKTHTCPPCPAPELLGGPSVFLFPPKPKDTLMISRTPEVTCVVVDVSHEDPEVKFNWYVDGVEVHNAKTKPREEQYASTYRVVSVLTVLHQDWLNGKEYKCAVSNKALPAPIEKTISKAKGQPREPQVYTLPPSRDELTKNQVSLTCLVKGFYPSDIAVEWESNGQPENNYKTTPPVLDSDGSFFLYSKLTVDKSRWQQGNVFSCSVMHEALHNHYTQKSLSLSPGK
light: B1 light with V32L
**Q.** Which “Fold difference/Parental” value [10] does the source give for B5 here?
**A.** The value was 7.6 fold.

**Q.** What about the Kd [11] of the same binder?
**A.** Its Kd is 0.022 nM.

B6: affinity-matured clone 53 in huA33-BsAb format (bispecific antibody, human IgG1, kappa, N297A)
heavy: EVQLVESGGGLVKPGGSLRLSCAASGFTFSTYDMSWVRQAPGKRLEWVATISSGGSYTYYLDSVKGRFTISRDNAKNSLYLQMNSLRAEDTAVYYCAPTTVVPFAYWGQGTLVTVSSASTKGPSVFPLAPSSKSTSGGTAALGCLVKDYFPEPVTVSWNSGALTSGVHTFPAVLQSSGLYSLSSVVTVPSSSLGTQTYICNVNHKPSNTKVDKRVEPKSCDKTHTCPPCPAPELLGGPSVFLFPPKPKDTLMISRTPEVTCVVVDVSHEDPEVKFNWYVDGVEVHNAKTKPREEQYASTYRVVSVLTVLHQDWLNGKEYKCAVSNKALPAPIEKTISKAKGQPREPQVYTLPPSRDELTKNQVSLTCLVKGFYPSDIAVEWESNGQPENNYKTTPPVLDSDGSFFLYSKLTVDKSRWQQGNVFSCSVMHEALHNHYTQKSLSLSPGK
light: B1 light with H91Y
**Q.** For B6, which “Fold difference/Parental” value [10] is on record?
**A.** The value was 9.6 fold.

**Q.** And the Kd [11]?
**A.** Its Kd is 0.0175 nM.

B7: affinity-matured clone 56 in huA33-BsAb format (bispecific antibody, human IgG1, kappa, N297A)
heavy: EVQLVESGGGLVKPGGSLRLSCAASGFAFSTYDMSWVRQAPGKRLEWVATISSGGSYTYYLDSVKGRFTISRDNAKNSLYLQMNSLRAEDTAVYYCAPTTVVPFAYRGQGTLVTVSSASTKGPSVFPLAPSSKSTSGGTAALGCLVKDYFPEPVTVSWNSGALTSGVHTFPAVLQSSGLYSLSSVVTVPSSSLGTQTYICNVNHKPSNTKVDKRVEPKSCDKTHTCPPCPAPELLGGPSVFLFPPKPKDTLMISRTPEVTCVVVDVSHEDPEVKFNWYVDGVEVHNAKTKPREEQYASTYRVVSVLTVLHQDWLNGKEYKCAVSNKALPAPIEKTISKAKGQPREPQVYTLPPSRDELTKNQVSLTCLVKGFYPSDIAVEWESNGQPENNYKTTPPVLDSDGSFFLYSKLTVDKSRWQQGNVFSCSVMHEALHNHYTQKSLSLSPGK
light: B1 light with V32L, H91Y
**Q.** What does the source list for B7?
**A.** Fold difference/Parental [10]: 6.9 fold; Kd [11]: 0.0243 nM

B8: affinity-matured clone 57 in huA33-BsAb format (bispecific antibody, human IgG1, kappa, N297A)
heavy: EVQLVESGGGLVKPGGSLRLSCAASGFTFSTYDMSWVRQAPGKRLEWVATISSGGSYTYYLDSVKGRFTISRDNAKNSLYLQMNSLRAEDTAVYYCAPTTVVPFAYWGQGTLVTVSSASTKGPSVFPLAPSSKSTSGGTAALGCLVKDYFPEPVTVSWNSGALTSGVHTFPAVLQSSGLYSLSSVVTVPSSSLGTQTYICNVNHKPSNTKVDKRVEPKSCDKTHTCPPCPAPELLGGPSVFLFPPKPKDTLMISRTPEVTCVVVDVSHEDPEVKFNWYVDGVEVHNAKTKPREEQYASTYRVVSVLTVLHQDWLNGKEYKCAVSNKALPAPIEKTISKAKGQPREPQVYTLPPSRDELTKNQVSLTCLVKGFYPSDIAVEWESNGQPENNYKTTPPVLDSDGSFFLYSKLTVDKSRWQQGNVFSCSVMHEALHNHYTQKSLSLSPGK
light: B1 light with R18S, F83V, H91Y
**Q.** For B8, which “Fold difference/Parental” value [10] is on record?
**A.** The value was 10.7 fold.

**Q.** And the Kd [11]?
**A.** The Kd was 0.0156 nM.

B9: chimeric chA33-IgG1 (antibody, V domains shown)
VH: EVKLVESGGGLVKPGGSLKLSCAASGFAFSTYDMSWVRQTPEKRLEWVATISSGGSYTYYLDSVKGRFTISRDSARNTLYLQMSSLRSEDTALYYCAPTTVVPFAYWGQGTLVTVSA
VL: DIVMTQSQKFMSTSVGDRVSITCKASQNVRTVVAWYQQKPGQSPKTLIYLASNRHTGVPDRFTGSGSGTDFTLTISNVQSEDLADYFCLQHWSYPLTFGSGTKLEVKR
notes: Chimeric antibody with murine A33 variable domains and a human IgG1 constant region; also called chimeric A33; 3A3-chA33
**Q.** For B9, which Kd [12] is on record?
**A.** The Kd was 0.31 nM.

**Q.** What about the koff [12] of the same binder?
**A.** The koff was 0.000628 s⁻¹.

**Q.** What about the kon [12] of the same binder?
**A.** The kon was 2.03e+06 M⁻¹ s⁻¹.

B10: huA33-IgG1 (H2L2) (antibody, V domains shown)
VH: EVQLVESGGGLVKPGGSLRLSCAASGFAFSTYDMSWVRQAPGKRLEWVATISSGGSYTYYLDSVKGRFTISRDNAKNSLYLQMNSLRAEDTAVYYCAPTTVVPFAYWGQGTLVTVSS
VL: DIQMTQSQSSLSTSVGDRVTITCKASQNVRTVVAWYQQKPGKSPKTLIYLASNRHTGVPSRFSGSGSGTEFTLTISNVQPEDFADYFCLQHWSYPLTFGSGTKLEIKR
notes: Humanized A33 IgG1, version H2L2; also called 3A3-H2L2; 3A3-H2/L2
**Q.** Which results are given for B10?
**A.** Kd [13]: 0.169 nM; koff [13]: 0.000363 s⁻¹; kon [13]: 2.15e+06 M⁻¹ s⁻¹; Kd [14]: 0.13 nM; Kd [12]: 0.169 nM; koff [12]: 0.000363 s⁻¹; kon [12]: 2.15e+06 M⁻¹ s⁻¹
